Data: patent US20140056902A1 (Kyowa Kirin, published 2014)

T1: chimeric protein 5 of human BMP9/10 region C (human, UniProt Q9UK05 320-429; Q9UK05 23-319)
T1 construct: Made in the pLN1V5_human BMP9 vector (His-tagged complex); also called Chimera 5; human BMP9/BMP10 chimeric protein 5; not shown: N-terminal His tag
T1 chain 1: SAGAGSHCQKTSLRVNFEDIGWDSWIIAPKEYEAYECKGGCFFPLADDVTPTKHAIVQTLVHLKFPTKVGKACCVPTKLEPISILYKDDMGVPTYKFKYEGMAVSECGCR
T1 chain 2: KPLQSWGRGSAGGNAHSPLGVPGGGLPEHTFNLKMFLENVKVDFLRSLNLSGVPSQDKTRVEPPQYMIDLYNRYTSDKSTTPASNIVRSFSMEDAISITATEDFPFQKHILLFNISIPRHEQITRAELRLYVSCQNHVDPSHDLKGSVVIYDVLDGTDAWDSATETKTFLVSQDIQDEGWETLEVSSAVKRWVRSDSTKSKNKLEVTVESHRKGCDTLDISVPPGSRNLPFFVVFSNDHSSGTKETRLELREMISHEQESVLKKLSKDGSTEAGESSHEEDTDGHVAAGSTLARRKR

T2: human BMP9 recombinant protein prepared according to Example 12 of WO 2010/126169 (N-terminal His-tagged … (human, UniProt Q9UK05 320-429; Q9UK05 23-319)
T2 construct: not shown: N-terminal His tag
T2 sequence 1: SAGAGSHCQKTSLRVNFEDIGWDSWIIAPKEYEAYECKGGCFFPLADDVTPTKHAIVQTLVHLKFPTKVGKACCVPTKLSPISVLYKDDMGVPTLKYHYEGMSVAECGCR
T2 sequence 2: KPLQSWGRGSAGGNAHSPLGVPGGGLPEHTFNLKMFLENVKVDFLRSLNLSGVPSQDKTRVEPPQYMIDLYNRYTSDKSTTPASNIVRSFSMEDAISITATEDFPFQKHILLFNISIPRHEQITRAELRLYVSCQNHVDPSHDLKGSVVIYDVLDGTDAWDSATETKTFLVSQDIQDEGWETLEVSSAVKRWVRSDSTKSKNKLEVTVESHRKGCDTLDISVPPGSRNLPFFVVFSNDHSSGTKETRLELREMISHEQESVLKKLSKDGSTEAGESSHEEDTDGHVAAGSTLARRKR

T3: N-terminal His-tagged BMP10 expressed by the pLN1V5_human BMP10 vector (human, UniProt O95393 22-424)
T3 sequence: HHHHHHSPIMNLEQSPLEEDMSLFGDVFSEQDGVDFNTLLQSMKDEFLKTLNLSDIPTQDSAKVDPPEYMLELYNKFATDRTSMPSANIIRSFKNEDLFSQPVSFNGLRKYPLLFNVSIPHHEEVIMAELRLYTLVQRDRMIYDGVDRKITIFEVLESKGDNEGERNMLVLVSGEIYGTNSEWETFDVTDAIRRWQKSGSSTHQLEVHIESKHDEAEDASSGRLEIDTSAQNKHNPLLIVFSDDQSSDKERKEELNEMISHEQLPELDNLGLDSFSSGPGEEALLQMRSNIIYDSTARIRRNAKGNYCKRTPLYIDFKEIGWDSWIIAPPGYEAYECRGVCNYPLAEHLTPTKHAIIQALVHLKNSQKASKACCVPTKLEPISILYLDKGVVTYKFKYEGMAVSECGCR

T4: human mature dimer BMP10 recombinant protein (manufactured by R&D systems, Cat#2926-BP) (human, UniProt O95393 317-424)
T4 construct: Bought protein; also called human BMP10
T4 sequence: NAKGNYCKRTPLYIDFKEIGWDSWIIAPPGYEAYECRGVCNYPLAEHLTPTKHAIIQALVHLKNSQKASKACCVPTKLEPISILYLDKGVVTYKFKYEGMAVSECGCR

T5: human mature dimer BMP9 recombinant protein (manufactured by R&D systems, Cat#3209-BP) (human, UniProt Q9UK05 320-429)
T5 construct: Bought protein; also called human BMP9; human BMP9 recombinant protein (manufactured by R&D systems)
T5 sequence: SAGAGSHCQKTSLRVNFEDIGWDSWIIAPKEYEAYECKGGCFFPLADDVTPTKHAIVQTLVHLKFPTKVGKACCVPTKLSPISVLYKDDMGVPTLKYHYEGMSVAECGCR


Legend:
[1] = biological target: T1, chimeric protein 5 of human BMP9/10 …; assay: antigen-immobilized ELISA, antigen coated at 3 ug/mL, antibody 1000 ng/mL; + = absorbance of 1 or more
Description: (§1) Antigen immobilized ELISA of the obtained antibodies was performed using the chimeric protein. 3 μg/mL of the recombinant human BMP9, BMP10, and BMP9/10 chimeric proteins of Example 20-2 in 50 mmol/L NaHCO₃ buffer were added to a 96-well plate for ELISA (F96 MAXISORP NUNC-IMMUNO PLATE, manufactured by Thermo Fisher Scientific, Cat#442404) at an amount of 50 μL/well, and left at 4° C. overnight for adsorption.
(§2) After removal of the reagent for immobilization, 200 μL/well of 1% BSA-PBS was added, and left at room temperature for 1 hour for blocking, and washing was carried out using PBST five times. […]
(§3) The plate was washed with PBST ten times, and 50 μL/well of the TMB chromogen reagent (TMB+Substrate-Chromogen, manufactured by Dako, Cat#S 1599) was added for chromogenic reaction. When the intensity of chromogenic reaction became strong enough, 50 μL/well of a 1 N sulfuric acid solution (manufactured by Wako, Cat#192-04755) was added, and absorbance at 450 nm and 570 nm was determined using a Multiskan Spectrum (manufactured by Thermo Labsystems).

[2] = biological target: T2, human BMP9 recombinant protein prepared …; assay: SPR (BIAcore 2000), antibody captured on anti-mouse IgG, human BMP9 recombinant protein as analyte, single cycle kinetics
Description: The binding activity (affinity) of the obtained antibodies to human BMP9 recombinant protein was examined using BIAcore 2000 (manufactured by GE Healthcare). After anti-mouse IgG antibody was immobilized onto a CM5 sensor chip using a Mouse Antibody Capture Kit (manufactured by GE Healthcare), anti-human BMP9 antibody was coupled to an RU value of 700-1100.
Thereafter, 0.152 nmol/L, 0.457 nmol/L, 1.37 nmol/L, 4.1 nmol/L, 12.3 nmol/L, 36.89 nmol/L, 110.67 nmol/L, and […] of the human BMP9 recombinant protein prepared in Example 7-1 were prepared by using an HBS-EP solution (manufactured by GE Healthcare) and added as analytes, and binding affinity was measured.
Based on the obtained values, the dissociation constant (Kd value) was calculated by single cycle kinetics (BIAevaluation Software ver. 3, manufactured by GE Healthcare).

[3] = biological target: T3, N-terminal His-tagged BMP10 expressed …; assay: antigen-immobilized ELISA, antigen coated at 3 ug/mL
Description: as §1, §2, §3

[4] = biological target: T4, human mature dimer BMP10 recombinant …; assay: ELISA, immobilized antigen (100 ng/mL coat), biotin-labeled antibody at 100 ng/mL, absorbance 450-570 nm
Description: To examine specificity of the obtained antibodies to human BMP9, their binding ability to human BMP9 and human BMP10 having the highest homology to human BMP9 was tested by comparison. First, 100 ng/mL of human mature dimer BMP9 recombinant protein (manufactured by R&D systems, Cat#3209-BP), or human mature dimer BMP10 recombinant protein (manufactured by R&D systems, Cat#2926-BP) prepared in 50 mmol/L NaHCO₃ buffer (manufactured by Wako, Cat#191-01305) was added to a 96-well plate for ELISA (F96 MAXISORP NUNC-IMMUNO PLATE, manufactured by Thermo Fisher Scientific, Cat#442404) at an amount of 50 μL/well, and left at 4° C. overnight for adsorption.
Subsequently, 6D10-1-1 antibody, 10D5-2-3 antibody, 3B7-3-3 antibody, R&D antibody, or anti-BMP10 antibody (manufactured by R&D, Cat#MAB2926) that was labeled with biotin using a Biotin Labeling Kit-NH2 (manufactured by COSMO BIO, Cat#LK03) was prepared at a concentration of 100 ng/mL using 10% Super Block in TBST which was prepared by mixing SuperBlock and TBST at a ratio of 1:9. 50 μL/well thereof was aliquoted as a primary antibody, and left at room temperature for 1 hour.
(§4) The plate was washed with TBST five times, and 50 μL/well of the TMB substrate reagent (TMB+ Substrate-Chromogen, manufactured by Dako, Cat#S1599) was added for color-development. When proper color was developed, 50 μL/well of the 1 N sulfuric acid solution (manufactured by Wako, Cat#192-04755) was added, and absorbance (450 nm-570 nm) at a sample wavelength of 450 nm and at a reference wavelength of 570 nm was determined using a plate reader (manufactured by Spectra Max, Molecular Devices).

[5] = biological target: T5, human mature dimer BMP9 recombinant …; assay: ELISA, immobilized human BMP9 (100 ng/mL coat), biotin-labeled antibody titrated, absorbance 450-570 nm; unit ng/mL from the legend
Description: First, 100 ng/mL of human mature dimer BMP9 recombinant protein (manufactured by R&D systems, Cat#3209-BP) prepared in 50 mmol/L NaHCO₃ buffer was added to a 96-well plate for ELISA (F96 MAXISORP NUNC-IMMUNO PLATE, manufactured by Thermo Fisher Scientific, Cat#439454) at an amount of 50 μL/well, and left at 4° C. overnight for adsorption.
After removal of the reagent for immobilization, 200 μL/well of SuperBlock (manufactured by Thermo […], Cat#37535) was added, and left at room temperature for 1 hour for blocking, and washing was carried out using TBST three times. Subsequently, the biotin-labeled 6D10-1-1 antibody, 10D5-2-3 antibody, 3B7-3-3 antibody or R&D antibody was prepared at a concentration of 1, 5, 20, 100, or 300 ng/mL using 10% Super Block in TBST. Each 50 μL/well thereof was aliquoted, and left at room temperature for 1 hour.
as §4

| Binder | binding result [1] | Kd [2] | Relative binding affinity (to R&D antibody) [2] | binding result [3] | binding result [4] | EC50 (read off the curve) [5] |
| --- | --- | --- | --- | --- | --- | --- |
| 10D5-2-3 antibody (antibody, mouse IgG1, V domains shown, Mouse monoclonal from a BMP9 KO mouse hybridoma; mouse IgG1 heavy chain, kappa light chain) VH: EVKLEESRGGLVQPGGSMKLSCVASGFTFSNYWMNWVRQSPEKGLEWVAHIRLKSDNYATHYAESVRGRFTISRDDSKSSVFLQMNNLRAEDTGIYYCTGGSNYVFAFWGQGTLVTVSA VL: not shown | binds | 0.00969 nM | 63.6 fold | no binding | no binding (tested: 100 ng/mL) |  |
| 6D10-1-1 antibody (antibody, mouse IgG1, V domains shown, Mouse monoclonal from a BMP9 KO mouse hybridoma; also called 610D-1-1 antibody) VH: QVQLQQSGAELVRPGTSVKVSCKASGYAFTNYLMEWIKQRPGQGLEWIGVIHPGIGVTNYNEKFKGKATLTADISSSTAYMQLSSLTSEDSAVYFCARRANWDLYYFDYWGQGTTLTVSS VL: DIQMTQITSSLSASLGDRVTISCSASQDISNYLNWYQQKPDGTVKLLIYYTSSLHSEVPSRFSGSGSGTDYSLTISNLEPEDIATYYCQQYINLPLTFGAGTKLELKR |  | 0.0297 nM | 20.7 fold | no binding | no binding (tested: 100 ng/mL) | ~8 ng/mL |
